# Source: US6165732A, “Method for identifying apoptosis modulating compounds” (Washington University, priority 1998, dated 2000)
# Columns and labels:
# Bax channel = assay: Effect of Bax 11-mer peptide on Bax channel in planar lipid bilayer; format: biochemical, murine; settings: 20 to 100 μM
# [1] = Channel forming activity of peptide in planar lipid bilayers which lack BCL-2 related proteins; format: biochemical; settings: bilayers lacking BCL-2 related proteins
# cell death = settings: known activity; cited from earlier work
# Bcl-2 channel = biological target: T1, Bcl-2 channel (Mus musculus, UniProt P10417); assay: Effect of Bax death agonist peptide on Bcl-2 channel in planar lipid bilayer; format: biochemical, murine; settings: for effect on conductance pattern of Bcl-2 channel: 20 to 100 μM; for effect on ion selectivity of Bcl-2 channel: peptide added to Bcl-2 channel
# T1 construct: proteoliposomes fused to planar lipid bilayer
# T1 sequence (P10417 1-218): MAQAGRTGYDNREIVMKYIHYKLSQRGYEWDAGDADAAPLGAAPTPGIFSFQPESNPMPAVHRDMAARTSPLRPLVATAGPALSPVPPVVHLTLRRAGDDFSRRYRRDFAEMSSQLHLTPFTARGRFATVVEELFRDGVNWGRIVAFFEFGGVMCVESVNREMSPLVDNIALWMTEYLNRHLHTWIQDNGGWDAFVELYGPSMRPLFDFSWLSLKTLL
# From the text: The Bax and Bcl-2 polypeptides used in the ion channel studies reported herein were recombinant murine Bcl-2 and Bax polypeptides lacking the C-terminal signal-anchor membrane targeting sequence (Bcl-2ΔC21, amino acids 1-218 of SEQ ID NO:9 and BaxΔC19, amino acids 1-173 of SEQ ID NO:6). These deletion derivatives, also referred to herein as BaxΔTM and Bcl-2ΔTM, were used to avoid any interference of the C-terminal signal-anchor membrane targeting sequence with the capacity of internal α helices to mediate insertion into artificial lipid bilayers.
# Proteoliposomes for fusion with a planar lipid bilayer were prepared as follows. Purified protein (0.25 μg) was added to […] lipid (Azolectin) in 20 μl of KCl buffer (150 mM KCl, 10 mM HEPES, pH 7.0). This mixture was placed into a dialysis bag with a molecular weight cutoff of 12 KDa. After 16 hours dialysis in 3000 volumes of 150 mM KCl (10 mM HEPES, pH 7.0) the proteoliposome suspension was removed and placed on ice for immediate use. The bilayer was set up with a 450:150 cis to trans KCl gradient to identify the ion selectivity of the initial currents. Fusion was initiated by adding 5-20 μl of lipid vesicles (only 5-20 ng of protein) to the cis bilayer chamber with mixing. Non-fused proteoliposomes were removed from the compartments and solutions exchanged as described above.
# Control bilayers containing Bcl-2 or Bax channels were prepared by fusion of unilamellar proteoliposomes with incorporated Bcl-2ΔTM or BaxΔTM with an established planar bilayer as described in Example 4. Test bilayers containing Bcl-2 channels were prepared in the same manner to which an 11 mer Bax peptide (SEQ ID NO:1) with known death agonist activity was added at 20, 50 or 100 μM. A voltage of 80 mV was applied to each control and test channel and its conductance measured for a period of 12 to 16 seconds and the frequency that each channel was measured at a particular conductance level (pA) was calculated. The data, representing about 500,000 measurements, are shown as histograms in FIGS. 8A-8E.
# Bilayers containing Bcl-2 and Bax channels were prepared as described in Example 4 with 150 mM KCl on both sides of the bilayer. The death agonist peptide was added to the cis side of a Bcl-2 channel at 150 μM. The voltage dependence of the currents and the ion selectivity for the Bcl-2 channel in the absence and presence of the death agonist peptide, as well as the Bax channel were determined and the data are shown in FIGS. 9A-C.
sequence,measurement,setting,value
ECLKRIGDELD [Bax 11mer peptide],effect on activity of Bax channels,Bax channel,not affected
same,channel forming activity,[1],no channel forming activity
same,cell death induction (known),cell death,known to induce cell death
same,single remaining conductance peak of Bcl-2 channel,"Bcl-2 channel; 100 μM peptide, 80 mV",about 65 pA
same,pK/pCl of Bcl-2 channel with peptide,"Bcl-2 channel; 150 μM peptide, cis side",0.26±0.05
same,slope of Bcl-2 channel current at negative potentials,"Bcl-2 channel; 150 μM peptide, symmetrical 150 mM KCl",linear and intermediate between that of Bcl-2 and Bax alone
same,effect on rectification of Bcl-2 channel,"Bcl-2 channel; 150 μM peptide, symmetrical 150 mM KCl, listed as death agonist peptide",imparted rectification
same,effect on conductance pattern of Bcl-2 channel,Bcl-2 channel,a simpler single channel conductance pattern
same,effect on conductance pattern of Bcl-2 channel,Bcl-2 channel; listed as 11 mer Bax peptide,changes its characteristic conductance pattern in a progressive manner
same,effect on ion selectivity of Bcl-2 channel,Bcl-2 channel,Cl^- selectivity
same,effect on ion selectivity of Bcl-2 channel,Bcl-2 channel; listed as death agonist peptide,reversed the ion selectivity of the Bcl-2 channel
